These results are taken from patent US20150239983A1 (University of California, published 2015).

T1: purified PSCA-Fc (human, UniProt O43653 12-83, limits assumed)
T1 construct: not shown: Fc part
T1 sequence: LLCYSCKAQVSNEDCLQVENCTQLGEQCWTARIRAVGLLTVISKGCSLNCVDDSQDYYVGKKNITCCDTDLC

B1: A2 anti-PSCA minibody (other)
chain: DIQLTQSPSSLSASVGDRVTITCSASSSVRFIHWYQQKPGKAPKRLIYDTSKLASGVPSRFSGSGSGTDFTLTISSLQPEDFATYYCQQWGSSPFTFGQGTKVEIKGSTSGGGSGGGSGGGGSEVQLVESGGGLVQPGGSLRLSCAASGFNIKDYYIHWVRQAPGKGLEWVAWIDPEYGDSEFVPKFQGRATMSADTSKNTAYLQMNSLRAEDTAVYYCKTGGFWGRGTLVTVSSEPKSCDKTHTCPPCGGGSSGGGSGGQPREPQVYTLPPSRDELTKNQVSLTCLVKGFYPSDIAVEWESNGQPENNYKTTPPVLDSDGSFFLYSKLTVDKSRWQQGNVFSCSVMHEALHNHYTQKSLSLSPGK
notes: also called A2 minibody; variant A2
B2: A11 anti-PSCA minibody (other)
chain: DIQLTQSPSTLSASMGDRVTITCSASSSVRFIHWYQQKPGKAPKRLIYDTSKLASGVPSRFSGSGSGTDFTLTISSLQPEDFATYYCQQWGSSPFTFGQGTKVEIKGSTSGGGSGGGSGGGGSSEVQLVEYGGGLVQPGGSLRLSCAASGFNIKDYYIHWVRQAPGKGLEWVAWIDPENGDTEFVPKFQGRATMSADTSKNTAYLQMNSLRAEDTAVYYCKTGGFWGQGTLVTVSSEPKSCDKTHTCPPCGGGSSGGGSGGQPREPQVYTLPPSRDELTKNQVSLTCLVKGFYPSDIAVEWESNGQPENNYKTTPPVLDSDGSFFLYSKLTVDKSRWQQGNVFSCSVMHEALHNHYTQKSLSLSPGK
notes: also called A11 minibody; variant A11
B3: C5 anti-PSCA minibody (other)
chain: DIQLIQSPSSLSASVGDRVTITCSASSSVRFIHWYQQKPGKAPKRLIYDTSKLASGVPSRFSGSGSGTDFTLTISSLQPEDFATYYCQQWSSSPFTFGQGTKVEIKGSTSGGGSGGGSGGGGSSEVQLVESGGGLVQPGGSLRLSCAASGFNIKDYYIHWVRQAPGKGLEWVAWIDPENGDTEFVPKFQGRATISADTSKNTVYLQMNSLRAKDTAVYYCKTGGFWGQGTLVTVSSEPKSCDKTHTCPPCGGGSSGGGSGGQPREPQVYTLPPSRDELTKNQVSLTCLVKGFYPSDIAVEWESNGQPENNYKTTPPVLDSDGSFFLYSKLTVDKSRWQQGNVFSCSVMHEALHNHYTQKSLSLSPGK
notes: also called C5 minibody; variant C5

This test has as its target T1, purified PSCA-Fc. Briefly: competition ELISA, wells coated with purified PSCA-Fc; reference is the parental 2B3 minibody. The protocol:
The ranking of the four minibodies was determined by competition ELISA and flow cytometry (FIG. 5).
Competition ELISA: PSCA relative binding affinity for the minibodies was determined by competition ELISA in which microtiter plate wells were coated with purified PSCA-Fc (Olafsen T, et al. J. Irrununotherapy 2007: 30:396).
Consider B1, for which the “improvement of relative affinity compared to the parental” value (“improvement of relative affinity” below) came out at 4.4 fold.

As for B2, the “improvement of relative affinity” value was 3 fold.

As for B3, the “improvement of relative affinity” value is 1.9 fold.
